The supplement of paper PMC10126150
± gives the standard deviation of the averaged measurements.

Test system: ATP
Experiment: switch fluorescence ratio, 500 uM ATP over buffer (Cy3 cluster intensity, sum of 5 cycles each) (fold (ratio)); higher = stronger signal-on switching upon ATP binding; sequences stand for … in TCGTCGGCAGCGTCAGATGTGTATAAGAGACAGTTTTTTTTTTTTTTTTTTTTTTTTT…TC
Details: aptamer strand: ATP DNA aptamer (quencher-CACCTGGGGGAGTATTGCGGAGGAAGG + anchor), 100 nM annealed; ATP concentration: 500 uM
How it was run: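 Cy3-labelled switching-strand clusters on a modified Illumina MiSeq flow-cell were annealed to 100 nM quencher-labelled ATP aptamer, imaged in selection buffer, then imaged after 15 min with 500 uM ATP at 22 °C. Five buffer/ATP cycles ran, with NaOH stripping and re-annealing between them. The fluorescence ratio is summed target-cycle over summed buffer-cycle Cy3 intensity per cluster, averaged per switch-domain sequence. Clusters outside 100-1000 RFU were excluded.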
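Further: ATP exposure 15 min at 22 °C before imaging.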

| Sequence | switch fluorescence ratio |
| --- | --- |
| ACGGGGAAGG | 1.03 ± 0.035 |
| ACGGGGCGGC | 1.11 ± 0.028 |
| ACGGGGCGTT | 1.01 ± 0.012 |
| ACGGGGGAGG | 1.02 ± 0.028 |
| ACGGGGGATG | 0.995 ± 0.025 |
| ACGGGGGCCG | 0.993 ± 0.041 |
| ACGGGGGTT | 0.98 ± 0.017 |
| ACGGGGTAGA | 1.03 ± 0.052 |
| ACGGGGTGTC | 1.08 ± 0.089 |
| ACGGGGTTTT | 1.01 ± 0.017 |
| ACGGGTAATT | 1.02 ± 0.037 |
| ACGGGTAGGG | 1.05 ± 0.035 |
| ACGGGTTCCT | 1 ± 0.025 |
| ACGGGTTGTC | 0.981 ± 0.11 |
| ACGGGTTTGG | 1.01 ± 0.023 |
| ACGGTAGAAC | 1.04 ± 0.021 |
| ACGGTAGTGC | 1.04 ± 0.022 |
| ACGGTATTG | 1.19 ± 0.037 |
| ACGGTCAGGG | 1.046 ± 0.0074 |
| ACGGTCGGCT | 1.04 ± 0.048 |
| ACGGTGACGG | 1.02 ± 0.04 |
| ACGGTGATCA | 1.03 ± 0.038 |
| ACGGTGCCAA | 1.02 ± 0.034 |

| Sequence | switch fluorescence ratio |
| --- | --- |
| ACGGTGTGCG | 1 ± 0.058 |
| ACGGTTATTT | 1.072 ± 0.01 |
| ACGGTTCCAT | 0.97 ± 0.057 |
| ACGGTTGGTG | 1.01 ± 0.027 |
| ACGGTTTTTC | 1.0014 ± 0.0005 |
| ACGTAAAAGT | 1.25 ± 0.41 |
| ACGTAACATG | 1.24 ± 0.015 |
| ACGTAATGTC | 1.25 ± 0.12 |
| ACGTAATTAA | 1.13 ± 0.026 |
| ACGTAGAATG | 1.06 ± 0.015 |
| ACGTAGACGT | 1.02 ± 0.018 |
| ACGTAGTGCG | 1 ± 0.023 |
| ACGTATGTTG | 1.022 ± 0.0017 |
| ACGTCAAGAG | 1.45 ± 0.0026 |
| ACGTCAGTTG | 0.975 ± 0.012 |
| ACGTCATAGT | 1.14 ± 0.047 |
| ACGTCCAAAA | 1.04 ± 0.026 |
| ACGTCCGCTA | 2.6 ± 0.064 |
| ACGTCGATGG | 0.995 ± 0.019 |
| ACGTGACCAT | 1.33 ± 0.047 |
| ACGTGAGGTT | 1.01 ± 0.059 |
| ACGTGAGTGT | 0.977 ± 0.0076 |
| ACGTGAGTTT | 0.957 ± 0.035 |

| Sequence | switch fluorescence ratio |
| --- | --- |
| ACGTGATTTT | 1.09 ± 0.065 |
| ACGTGCAGTC | 1.12 ± 0.083 |
| ACGTGGTCCA | 0.985 ± 0.037 |
| ACGTGGTTAG | 1 ± 0.029 |
| ACGTGTCTTG | 1.01 ± 0.013 |
| ACGTGTGATG | 0.99 ± 0.024 |
| ACGTGTTAAT | 1.005 ± 0.0017 |
| ACGTTAAATG | 1.13 ± 0.053 |
| ACGTTAAGAT | 1.29 ± 0.26 |
| ACGTTACTCA | 1.5 ± 0.032 |
| ACGTTATGTT | 1.1 ± 0.035 |
| ACGTTGCACA | 1.18 ± 0.016 |
| ACGTTTGGCT | 0.954 ± 0.028 |
| ACGTTTGTTA | 1.002 ± 0.0059 |
| ACGTTTTAA | 0.9999 ± 0.0084 |
| ACTAAAAGGT | 1.01 ± 0.012 |
| ACTAAAGTGC | 1.01 ± 0.03 |
| ACTAAATATG | 1.05 ± 0.046 |
| ACTAAATCGG | 1.02 ± 0.039 |
| ACTAAGGGAG | 1.01 ± 0.005 |
| ACTAATATAT | 0.999 ± 0.04 |
| ACTAATATCG | 1.04 ± 0.036 |
| ACTAATATTG | 1.032 ± 0.0054 |

| Sequence | switch fluorescence ratio |
| --- | --- |
| ACTACAGCTC | 1.15 ± 0.021 |
| ACTACGTAAA | 0.997 ± 0.046 |
| ACTACTACTT | 1.16 ± 0.019 |
| ACTACTGACA | 1.24 ± 0.04 |
| ACTAGAAGAC | 1.04 ± 0.012 |
| ACTAGGGATG | 0.987 ± 0.014 |
| ACTAGTATGG | 1.03 ± 0.053 |
| ACTAGTCAAA | 1.02 ± 0.012 |
| ACTAGTGGTC | 0.992 ± 0.042 |
| ACTATCGGGT | 1.04 ± 0.028 |
| ACTATTATCT | 1.023 ± 0.0099 |
| ACTATTATTT | 0.9887 ± 0.0022 |
| ACTCAGCTGG | 1.074 ± 0.0069 |
| ACTCAGTATA | 1.1 ± 0.02 |
| ACTCAGTTGT | 1.06 ± 0.059 |
| ACTCATATCG | 0.987 ± 0.029 |
| ACTCATGTTG | 0.98166 ± 0.00011 |
| ACTCCATGCG | 1.155 ± 0.0036 |
| ACTCCGACCG | 1.72 ± 0.14 |
| ACTCCGGGGA | 2.4 ± 0.42 |
| ACTCCTAACC | 1.26 ± 0.047 |
| ACTCCTCGAC | 2.71 ± 0.41 |
| ACTCCTGGTT | 1.01 ± 0.014 |

| Sequence | switch fluorescence ratio |
| --- | --- |
| ACTCGAGGGG | 1.01 ± 0.041 |
| ACTCGCGGGC | 1.98 ± 0.21 |
| ACTCGGGCTA | 1.59 ± 0.61 |
| ACTCGGGGGA | 1.018 ± 0.0035 |
| ACTCGGGTAA | 1 ± 0.017 |
| ACTCGTTTAT | 0.99 ± 0.013 |
| ACTCTGGGC | 1.17 ± 0.21 |
| ACTCTTATCA | 1.01 ± 0.023 |
| ACTCTTTATA | 1.04 ± 0.035 |
| ACTCTTTTAC | 1.291 ± 0.0056 |
| ACTGAAGATT | 1.0263 ± 0.00089 |
| ACTGACGATG | 1.31 ± 0.018 |
| ACTGAGGCCG | 1.04 ± 0.16 |
| ACTGAGGGCG | 1.02 ± 0.025 |
| ACTGAGGGTA | 1.04 ± 0.027 |
| ACTGAGTAA | 1.01 ± 0.076 |
| ACTGAGTCAT | 1.01 ± 0.034 |
| ACTGAGTTGT | 1.04 ± 0.038 |
| ACTGATTGGC | 1.18 ± 0.18 |
| ACTGCATCTA | 1.09 ± 0.033 |
| ACTGCCGGTG | 1.25 ± 0.053 |
| ACTGCCGTAT | 1.01 ± 0.036 |
| ACTGCTTCCT | 1.34 ± 0.051 |

| Sequence | switch fluorescence ratio |
| --- | --- |
| ACTGGAGGGC | 1.08 ± 0.1 |
| ACTGGGGAGC | 0.985 ± 0.0078 |
| ACTGGGGATA | 0.988 ± 0.047 |
| ACTGGGGATG | 0.963 ± 0.043 |
| ACTGGGTCCT | 0.973 ± 0.015 |
| ACTGGGTGGA | 1.02 ± 0.034 |
| ACTGGGTGGC | 1.01 ± 0.029 |
| ACTGGTATTA | 1.02 ± 0.014 |
| ACTGGTGCAT | 1.04 ± 0.019 |
| ACTGTAGTTT | 1.11 ± 0.07 |
| ACTGTATGTC | 1.03 ± 0.014 |
| ACTGTCGGGC | 1.03 ± 0.025 |
| ACTGTGAATT | 1.02 ± 0.011 |
| ACTGTTAATA | 1.03 ± 0.023 |
| ACTGTTATGT | 1.07 ± 0.022 |
| ACTGTTGGCG | 0.965 ± 0.067 |
| ACTGTTGTGT | 1.06 ± 0.1 |
| ACTGTTGTTG | 1.006 ± 0.01 |
| ACTTAAAAGC | 1 ± 0.019 |
| ACTTAACATT | 1.18 ± 0.056 |
| ACTTAGACAC | 1.095 ± 0.0089 |
| ACTTATATAG | 1.012 ± 0.0065 |
| ACTTATGTTG | 0.995 ± 0.024 |

| Sequence | switch fluorescence ratio |
| --- | --- |
| ACTTATTGGG | 1.03 ± 0.011 |
| ACTTATTGTA | 0.9878 ± 0.0098 |
| ACTTATTTGC | 1.16 ± 0.17 |
| ACTTCACATA | 1.35 ± 0.042 |
| ACTTCAGCAG | 1.12 ± 0.023 |
| ACTTCAGGGG | 1.13 ± 0.1 |
| ACTTCGAGCG | 1.08 ± 0.02 |
| ACTTGACTTG | 1.03 ± 0.018 |
| ACTTGAGTTT | 0.988 ± 0.01 |
| ACTTGATTGT | 1.02 ± 0.094 |
| ACTTGCACTT | 1.22 ± 0.038 |
| ACTTGCGGGC | 1.03 ± 0.021 |
| ACTTGCTATA | 1.06 ± 0.029 |
| ACTTGCTATC | 1.25 ± 0.048 |
| ACTTGGACGC | 1.14 ± 0.044 |
| ACTTGGGCTT | 1.03 ± 0.051 |
| ACTTGGGGTA | 0.992 ± 0.04 |
| ACTTGGGGTG | 1.04 ± 0.013 |
| ACTTGGTCGA | 0.9902 ± 0.0095 |
